Measured values published in publication doi:10.1101/2021.03.12.434960 (bioRxiv, 2021).

B1: full-length human KIF5C, C-terminal mScarlet-StrepII (natural protein)
chain: MADPAECSIKVMCRFRPLNEAEILRGDKFIPKFKGDETVVIGQGKPYVFDRVLPPNTTQEQVYNACAKQIVKDVLEGYNGTIFAYGQTSSGKTHTMEGKLHDPQLMGIIPRIAHDIFDHIYSMDENLEFHIKVSYFEIYLDKIRDLLDVSKTNLAVHEDKNRVPYVKGCTERFVSSPEEVMDVIDEGKANRHVAVTNMNEHSSRSHSIFLINIKQENVETEKKLSGKLYLVDLAGSEKVSKTGAEGAVLDEAKNINKSLSALGNVISALAEGTKTHVPYRDSKMTRILQDSLGGNCRTTIVICCSPSVFNEAETKSTLMFGQRAKTIKNTVSVNLELTAEEWKKKYEKEKEKNKTLKNVIQHLEMELNRWRNGEAVPEDEQISAKDQKNLEPCDNTPIIDNIAPVVAGISTEEKEKYDEEISSLYRQLDDKDDEINQQSQLAEKLKQQMLDQDELLASTRRDYEKIQEELTRLQIENEAAKDEVKEVLQALEELAVNYDQKSQEVEDKTRANEQLTDELAQKTTTLTTTQRELSQLQELSNHQKKRATEILNLLLKDLGEIGGIIGTNDVKTLADVNGVIEEEFTMARLYISKMKSEVKSLVNRSKQLESAQMDSNRKMNASERELAACQLLISQHEAKIKSLTDYMQNMEQKRRQLEESQDSLSEELAKLRAQEKMHEVSFQDKEKEHLTRLQDAEEMKKALEQQMESHREAHQKQLSRLRDEIEEKQKIIDEIRDLNQKLQLEQEKLSSDYNKLKIEDQEREMKLEKLLLLNDKREQAREDLKGLEETVSRELQTLHNLRKLFVQDLTTRVKKSVELDNDDGGGSAAQKQKISFLENNLEQLTKVHKQLVRDNADLRCELPKLEKRLRATAERVKALESALKEAKENAMRDRKRYQQEVDRIKEAVRAKNMARRAHSAQIAKPIRPGHYPASSPTAVHAIRGGGGSSSNSTHYQK

Assays:
[1] = target: the molecule itself; assay: SEC-MALS
[2] = target: T1, KIF5B-Δhinge (Δ505-610), C-terminal mScarlet-StrepII (human, UniProt P33176 1-963, Δ505-610); assay: TIRF microscopy on surface-bound microtubules
T1 sequence: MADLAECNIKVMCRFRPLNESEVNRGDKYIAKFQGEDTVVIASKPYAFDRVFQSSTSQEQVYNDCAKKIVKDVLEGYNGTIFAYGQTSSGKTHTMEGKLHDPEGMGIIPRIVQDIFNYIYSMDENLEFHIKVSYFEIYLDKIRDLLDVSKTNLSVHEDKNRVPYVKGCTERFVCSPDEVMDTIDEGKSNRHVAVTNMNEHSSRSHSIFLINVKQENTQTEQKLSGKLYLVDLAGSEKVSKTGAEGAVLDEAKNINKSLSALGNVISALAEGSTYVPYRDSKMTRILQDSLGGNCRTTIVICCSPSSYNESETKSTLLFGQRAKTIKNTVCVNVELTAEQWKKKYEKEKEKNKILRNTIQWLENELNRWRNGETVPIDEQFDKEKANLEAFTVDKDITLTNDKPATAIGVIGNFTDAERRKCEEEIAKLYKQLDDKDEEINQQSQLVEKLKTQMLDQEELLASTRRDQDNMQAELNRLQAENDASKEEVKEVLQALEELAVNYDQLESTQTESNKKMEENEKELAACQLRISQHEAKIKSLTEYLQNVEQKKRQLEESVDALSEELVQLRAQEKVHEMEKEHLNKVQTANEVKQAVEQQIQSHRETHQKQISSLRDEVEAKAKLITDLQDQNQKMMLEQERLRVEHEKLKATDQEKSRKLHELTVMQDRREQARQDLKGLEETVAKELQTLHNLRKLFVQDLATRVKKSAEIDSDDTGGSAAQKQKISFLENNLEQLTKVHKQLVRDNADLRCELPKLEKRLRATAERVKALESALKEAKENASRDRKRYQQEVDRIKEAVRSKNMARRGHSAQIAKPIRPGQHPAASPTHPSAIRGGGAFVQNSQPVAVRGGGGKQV

[3] = target: T2, full-length human KIF5B, C-terminal mScarlet-StrepII (human, UniProt P33176 1-963)
T2 sequence: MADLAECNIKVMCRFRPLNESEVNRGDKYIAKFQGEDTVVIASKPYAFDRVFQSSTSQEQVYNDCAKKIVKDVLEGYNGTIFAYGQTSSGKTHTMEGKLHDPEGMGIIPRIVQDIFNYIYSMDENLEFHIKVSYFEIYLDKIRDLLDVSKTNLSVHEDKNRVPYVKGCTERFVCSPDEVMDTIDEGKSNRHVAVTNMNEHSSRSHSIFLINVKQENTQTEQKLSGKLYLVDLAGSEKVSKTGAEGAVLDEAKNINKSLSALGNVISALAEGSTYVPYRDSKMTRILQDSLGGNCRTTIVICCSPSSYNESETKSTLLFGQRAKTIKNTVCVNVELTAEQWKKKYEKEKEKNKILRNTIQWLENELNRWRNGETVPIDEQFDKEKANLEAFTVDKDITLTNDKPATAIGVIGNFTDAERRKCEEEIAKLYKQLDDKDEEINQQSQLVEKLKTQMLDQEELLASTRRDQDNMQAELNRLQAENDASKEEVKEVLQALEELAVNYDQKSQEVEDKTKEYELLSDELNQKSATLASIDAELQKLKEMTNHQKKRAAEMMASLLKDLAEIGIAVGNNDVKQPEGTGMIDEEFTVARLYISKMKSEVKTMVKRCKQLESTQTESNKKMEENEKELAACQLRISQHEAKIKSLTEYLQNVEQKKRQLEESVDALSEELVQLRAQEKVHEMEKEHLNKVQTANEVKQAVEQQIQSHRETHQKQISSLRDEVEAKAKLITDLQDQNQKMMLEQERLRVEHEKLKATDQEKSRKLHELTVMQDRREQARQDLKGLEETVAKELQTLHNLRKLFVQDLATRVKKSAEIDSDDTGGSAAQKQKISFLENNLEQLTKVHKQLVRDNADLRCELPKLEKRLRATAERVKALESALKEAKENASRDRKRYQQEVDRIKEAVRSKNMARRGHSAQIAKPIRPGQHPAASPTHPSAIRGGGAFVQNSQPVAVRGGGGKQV

[4] = target: T3, full-length human KIF5A, C-terminal mScarlet-StrepII (human, UniProt Q12840 1-1032)
T3 sequence: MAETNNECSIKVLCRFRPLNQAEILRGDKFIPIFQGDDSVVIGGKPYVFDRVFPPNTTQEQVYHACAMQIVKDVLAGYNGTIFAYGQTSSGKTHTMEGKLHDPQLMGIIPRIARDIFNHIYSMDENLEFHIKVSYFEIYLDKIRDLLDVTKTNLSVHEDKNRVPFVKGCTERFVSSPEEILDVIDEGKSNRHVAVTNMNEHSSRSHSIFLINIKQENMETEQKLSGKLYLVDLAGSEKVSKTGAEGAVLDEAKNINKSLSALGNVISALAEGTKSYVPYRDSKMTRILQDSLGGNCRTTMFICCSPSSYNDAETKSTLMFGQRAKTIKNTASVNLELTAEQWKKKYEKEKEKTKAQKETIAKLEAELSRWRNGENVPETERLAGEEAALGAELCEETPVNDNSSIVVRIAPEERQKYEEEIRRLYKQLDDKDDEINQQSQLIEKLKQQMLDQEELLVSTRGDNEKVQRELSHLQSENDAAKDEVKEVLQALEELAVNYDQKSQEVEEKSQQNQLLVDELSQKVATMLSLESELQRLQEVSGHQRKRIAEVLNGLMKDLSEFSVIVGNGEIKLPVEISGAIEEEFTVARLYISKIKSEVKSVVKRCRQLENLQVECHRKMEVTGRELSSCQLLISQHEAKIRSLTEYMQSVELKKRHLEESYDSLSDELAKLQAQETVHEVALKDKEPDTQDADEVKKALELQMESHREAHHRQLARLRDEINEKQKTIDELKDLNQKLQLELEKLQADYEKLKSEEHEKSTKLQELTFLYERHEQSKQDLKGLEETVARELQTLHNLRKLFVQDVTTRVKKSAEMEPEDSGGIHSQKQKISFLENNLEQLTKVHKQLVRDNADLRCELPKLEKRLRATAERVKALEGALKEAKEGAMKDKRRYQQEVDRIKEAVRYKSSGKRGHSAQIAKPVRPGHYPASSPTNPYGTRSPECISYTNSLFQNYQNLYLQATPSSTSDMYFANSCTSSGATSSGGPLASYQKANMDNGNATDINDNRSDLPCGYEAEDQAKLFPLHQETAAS

[5] = target: B1

B1
stoichiometry N [1]: 2

B2: KLC1-CC (aa 1-200), N-terminal 6xHis-2xStrepII-sfGFP (domain or fragment)
chain: MYDNMSTMVYIKEDKLEKLTQDEIISKTKQVIQGLEALKNEHNSILQSLLETLKCLKKDDESNLVEEKSNMIRKSLEMLELGLSEAQVMMALSNHLNAVESEKQKLRAQVRRLCQENQWLRDELANTQQKLQKSEQSVAQLEEEKKHLEFMNQLKKYDDDISPSEDKDTDSTKEPLDDLFPNDEDDPGQGIQQQHSSAAA
binding result [2]: binds

B3: human KLC1 with N-terminal 6xHis-FLAG (co-expressed with KIF5) (natural protein)
chain: MYDNMSTMVYIKEDKLEKLTQDEIISKTKQVIQGLEALKNEHNSILQSLLETLKCLKKDDESNLVEEKSNMIRKSLEMLELGLSEAQVMMALSNHLNAVESEKQKLRAQVRRLCQENQWLRDELANTQQKLQKSEQSVAQLEEEKKHLEFMNQLKKYDDDISPSEDKDTDSTKEPLDDLFPNDEDDPGQGIQQQHSSAAAAAQQGGYEIPARLRTLHNLVIQYASQGRYEVAVPLCKQALEDLEKTSGHDHPDVATMLNILALVYRDQNKYKDAANLLNDALAIREKTLGKDHPAVAATLNNLAVLYGKRGKYKEAEPLCKRALEIREKVLGKDHPDVAKQLNNLALLCQNQGKYEEVEYYYQRALEIYQTKLGPDDPNVAKTKNNLASCYLKQGKFKQAETLYKEILTRAHEREFGSVDDENKPIWMHAEEREECKGKQKDGTSFGEYGGWYKACKVDSPTVTTTLKNLGALYRRQGKFEAAETLEEAAMRSRKQGLDNVHKQRVAEVLNDPENMEKRRSRESLNVDVVKYESGPDGGEEVSMSVEWNGGVSGRASFCGKRQQQQWPGRRHR
stoichiometry N [3]: ~0.8 KLC1 per KHC | stoichiometry N [4]: ~0.8 KLC1 per KHC | stoichiometry N [5]: ~0.8 KLC1 per KHC
